Positions count from the first letter of the chain named.
Tests used:
[1] = target: T1, ADAM17 on the surface of human tumour cells (A431 substrate-Nluc cells; NCI-H1299) (human, UniProt P78536 215-824); assay: flow cytometry on the tumour cell line NCI-H1299, antibody titration
T1 construct: Endogenous ADAM17 of human tumour cell lines; also called ADAM17 at the plasma membrane; tumour cell line NCI-H1299

rhADAM10 = target: T2, rhADAM10 (human, UniProt O14672); assay: ELISA on coated rhADAM10 (2.5 µg/ml), OD 450 nm
T2 construct: also called recombinant human ADAM10 (AD936, R&D Systems)
T2 sequence (recombinant ADAM10 polypeptide, looked up): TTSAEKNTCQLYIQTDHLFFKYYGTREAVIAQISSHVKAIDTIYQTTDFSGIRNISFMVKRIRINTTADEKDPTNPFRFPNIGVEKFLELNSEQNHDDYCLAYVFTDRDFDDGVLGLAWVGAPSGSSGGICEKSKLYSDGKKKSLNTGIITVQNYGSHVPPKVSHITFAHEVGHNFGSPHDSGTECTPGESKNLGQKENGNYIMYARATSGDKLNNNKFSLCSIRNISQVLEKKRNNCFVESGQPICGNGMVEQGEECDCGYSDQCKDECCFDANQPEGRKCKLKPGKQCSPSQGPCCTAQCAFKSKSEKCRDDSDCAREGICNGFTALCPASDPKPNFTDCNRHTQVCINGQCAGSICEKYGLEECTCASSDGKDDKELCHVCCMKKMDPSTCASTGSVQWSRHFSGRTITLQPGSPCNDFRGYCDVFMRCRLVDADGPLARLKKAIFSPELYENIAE
Protocol: The binding of 1022C3 to human ADAM17 and ADAM10 was determined by ELISA in comparison to the anti human ADAM10 antibody AB936 (R&D Systems). A ninety six well ELISA plate was coated with 100 μl/well of recombinant human (rh)ADAM17 (930-ADB, R&D Systems) at a concentration of 1 μg/ml or rhADAM10 (AD936, R&D Systems) at a concentration of 2.5 μg/ml in PBS. The coating solution was incubated overnight at 4° C. The plates were then blocked with PBS containing 0.5% gelatin (#22151, Serva Electrophoresis GmbH, Heidelberg, Germany) for 2 h at 37° C. The saturation buffer discarded by flicking plates, 100 μl of 1022C3 at a concentration of 1 μg/ml in PBS or 5 μg/ml of anti human ADAM10 polyclonal (AB936, R&D Systems) was added to the ELISA plates and incubated for 1 h at 37° C. After three washes, 100 μl horseradish peroxidase-conjugated anti human (A7164, Sigma) or anti goat (115-035-164, Jackson ImmunoResearch Europe Ltd) antibody solution diluted 1/5000 in PBS were incubated for 1 h at 37° C. After three washes, 100 μl/well TMB substrate (#UP664782, Uptima, Interchim, France) was added. After a 10 min incubation time at room temperature, the reaction was stopped using 1 M sulphuric acid and the optical density at 450 nm was measured (FIG. 7).

[2] = target: T3, human ADAM17 H603-671 (MPD (Cter)) human Fc fusion (human, UniProt P78536 603-671); assay: SPR (Biacore X100), about 700 RU m1022C3 captured, analyte 250 nM, FC2-FC1
T3 construct: not shown: human Fc domain at the C-terminus
Protocol: (§1) The experiment was performed on a Biacore X100 device. The 1022C3 is used as the ligand and the ADAM17 fragments and chimeric constructs are used as the analyte. The experiment is run at 10 μl/min at 25° C. on a rabbit anti-mouse polyclonal antibody (Mouse antibody capture kit, BR-1008-38, GE Healthcare) covalently linked to the matrix of both flowcells of a CM5 sensorchip (BR-1000-12) using the amine coupling kit (BR-1000-50, GE Healthcare), using the HBS-EP+ buffer (BR-1008-26, GE Healthcare) as the running buffer. This buffer is also used for the dilutions of the ligand and the analytes.
(§2) A solution of the 1022C3 at the concentration of 15 μg/ml is injected on the second flowcell (working surface) during 1 minute. At each cycle, one of the ADAM17 chimeric constructions (with a human Fc domain at the c-terminal positions) is injected at the concentration of 250 nM during 3 minutes on both flow cells: the reference without any 1022C3 (FC1) and the working cell with around 700 RU of m1022C3 (FC2). The registered signal corresponds to the difference between FC2 and FC1 responses.

[3] = target: T4, human ADAM17 H475-602 (D-MPD (Nter)) human Fc fusion (human, UniProt P78536 475-602); assay: as above
T4 construct: not shown: human Fc domain at the C-terminus
Protocol: as §1, §2

[4] = target: T5, human ADAM17 H223-563 (C-D) human Fc fusion (human, UniProt P78536 223-563); assay: as above
T5 construct: not shown: human Fc domain at the C-terminus
Protocol: as §1, §2

[5] = target: T6, human ADAM17 H223-602 (C-D MPD (Nter)) human Fc fusion (human, UniProt P78536 223-602); assay: as above
T6 construct: not shown: human Fc domain at the C-terminus
Protocol: as §1, §2

[6] = target: T7, human ADAM17 H1-474 (P-C) human Fc fusion (human, UniProt P78536 18-474); assay: as above
T7 construct: Range as printed; not shown: human Fc domain at the C-terminus
Protocol: as §1, §2

[7] = target: T8, human ADAM17 H475-563 (D) human Fc fusion (human, UniProt P78536 475-563); assay: as above
T8 construct: not shown: human Fc domain at the C-terminus
Protocol: as §1, §2

[8] = target: soluble ADAM17 (extracellular domain of ADAM-17) (human, UniProt P78536 215-671); assay: SPR (Biacore), antibody captured on rabbit anti-mouse IgG, soluble ADAM17 400-12.5 nM, 1:1 Langmuir fit
Protocol: The antibody (ligand) was bound to the second flowcell of a Biacore CM5 sensor chip (GE Healthcare) activated on both flowcells with a Rabbit anti-Mouse (RAM) IgG (H+L) covalently linked to the carboxymethyldextran matrix. Soluble ADAM17 (analyte) at concentrations ranging from 400 to 12.5 nM obtained by a two fold dilution scheme (assuming a molecular weight of 52 kDa) was injected onto the surface at a flow rate of 30 μl/min in a 120 s pulse (association) plus an extra 180 s delay for the dissociation phase measurement. The RAM surface was regenerated using NaOH 30 mM, NaCl 150 mM and 10 mM Glycine, HCl pH 1.5 buffer solutions. Curves obtained at each concentration were double referenced by first subtracting the signal from the reference FC1 surface (RAM without any mouse anti-TACE mAb) followed by subtraction of the signal obtained from a running buffer injection (Biacore HBS-EP buffer).
Data were processed using BIAevaluation 3.1 software using the 1:1 Langmuir model. The suitability of the fit was measured by the values of the Refractive Index (RI) which have to tend to zero and the κ² value.

[9] = target: murine ADAM17 M1-671 (p-c-d-mpd) human Fc fusion (murine; human) (UniProt Q9Z0F8); assay: SPR (Biacore X100), about 700 RU m1022C3 captured, analyte 250 nM, FC2-FC1
[10] = target: ADAM17 fragments and chimeric constructs giving the positive response; assay: as above
[11] = target: murine/human chimeric ADAM17 M1-602H603-671 (p-c-d-mpd (Nter)-MPD (Cter)) human Fc fusion (murine; human) (UniProt Q9Z0F8); assay: as above
murine/human chimeric ADAM17 M1-602H603-671 (p-c-d-mpd (Nter)-MPD (Cter)) human Fc fusion (murine; human), sequence (Q9Z0F8 other isoform, or with tags, fused parts or gaps mutant limits assumed, form in doubt): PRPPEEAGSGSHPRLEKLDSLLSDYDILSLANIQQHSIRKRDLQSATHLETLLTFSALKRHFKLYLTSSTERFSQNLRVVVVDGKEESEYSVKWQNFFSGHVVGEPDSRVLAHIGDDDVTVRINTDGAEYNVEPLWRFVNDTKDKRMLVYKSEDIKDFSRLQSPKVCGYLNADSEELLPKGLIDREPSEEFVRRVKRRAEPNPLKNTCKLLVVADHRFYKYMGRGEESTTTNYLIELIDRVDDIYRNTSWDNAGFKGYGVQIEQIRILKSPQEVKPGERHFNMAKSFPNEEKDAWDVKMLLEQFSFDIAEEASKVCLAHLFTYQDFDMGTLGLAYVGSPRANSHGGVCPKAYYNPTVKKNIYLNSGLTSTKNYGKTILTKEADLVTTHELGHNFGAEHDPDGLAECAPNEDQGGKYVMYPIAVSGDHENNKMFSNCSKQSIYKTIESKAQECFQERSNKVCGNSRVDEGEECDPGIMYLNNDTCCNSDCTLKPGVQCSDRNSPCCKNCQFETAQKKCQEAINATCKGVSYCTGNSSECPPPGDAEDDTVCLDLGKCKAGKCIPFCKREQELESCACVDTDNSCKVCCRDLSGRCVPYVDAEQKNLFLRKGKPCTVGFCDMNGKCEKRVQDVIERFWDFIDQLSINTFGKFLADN

soluble ADAM17 (extracellular domain of ADAM-17), sequence (P78536 215-671): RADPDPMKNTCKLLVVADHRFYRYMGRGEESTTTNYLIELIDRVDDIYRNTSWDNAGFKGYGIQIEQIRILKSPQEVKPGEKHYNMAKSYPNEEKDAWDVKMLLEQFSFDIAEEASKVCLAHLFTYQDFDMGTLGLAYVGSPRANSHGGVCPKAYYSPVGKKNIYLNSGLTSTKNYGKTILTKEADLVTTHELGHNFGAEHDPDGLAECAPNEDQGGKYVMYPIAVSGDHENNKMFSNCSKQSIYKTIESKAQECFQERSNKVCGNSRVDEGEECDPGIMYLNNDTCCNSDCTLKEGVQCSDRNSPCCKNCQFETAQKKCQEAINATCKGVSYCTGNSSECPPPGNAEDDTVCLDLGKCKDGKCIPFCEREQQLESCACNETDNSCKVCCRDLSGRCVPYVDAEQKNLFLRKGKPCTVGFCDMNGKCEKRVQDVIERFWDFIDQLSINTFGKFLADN
T1 sequence (P78536 215-824 limits assumed): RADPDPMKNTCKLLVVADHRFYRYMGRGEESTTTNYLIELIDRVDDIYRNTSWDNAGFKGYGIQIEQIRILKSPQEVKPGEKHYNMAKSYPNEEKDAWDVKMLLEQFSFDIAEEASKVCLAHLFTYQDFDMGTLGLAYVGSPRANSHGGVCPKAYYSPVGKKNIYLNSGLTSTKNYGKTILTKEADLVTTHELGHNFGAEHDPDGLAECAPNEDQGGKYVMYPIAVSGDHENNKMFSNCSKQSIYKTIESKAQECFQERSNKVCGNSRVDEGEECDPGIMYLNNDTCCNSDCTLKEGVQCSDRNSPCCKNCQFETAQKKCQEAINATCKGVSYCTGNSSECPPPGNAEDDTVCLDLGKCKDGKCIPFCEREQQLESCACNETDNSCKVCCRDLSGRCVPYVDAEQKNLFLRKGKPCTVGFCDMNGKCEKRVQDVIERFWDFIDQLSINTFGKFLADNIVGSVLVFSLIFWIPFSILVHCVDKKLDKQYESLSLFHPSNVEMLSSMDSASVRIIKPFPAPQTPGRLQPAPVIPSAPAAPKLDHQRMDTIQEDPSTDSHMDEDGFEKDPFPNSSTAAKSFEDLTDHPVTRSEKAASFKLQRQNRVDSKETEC
T3 sequence (P78536 603-671): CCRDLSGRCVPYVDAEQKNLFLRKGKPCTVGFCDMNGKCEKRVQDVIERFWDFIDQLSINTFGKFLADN
murine ADAM17 M1-671 (p-c-d-mpd) human Fc fusion (murine; human), sequence (Q9Z0F8 18-671 limits assumed, form in doubt): as the sequence (Q9Z0F8 other isoform, or with tags, fused parts or gaps mutant limits assumed, form in doubt) above, with D589N, R593P counted along it
T8 sequence (P78536 475-563): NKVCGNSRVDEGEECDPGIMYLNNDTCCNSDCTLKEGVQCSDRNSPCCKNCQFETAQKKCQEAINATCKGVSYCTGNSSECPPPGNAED
T6 sequence (P78536 223-602): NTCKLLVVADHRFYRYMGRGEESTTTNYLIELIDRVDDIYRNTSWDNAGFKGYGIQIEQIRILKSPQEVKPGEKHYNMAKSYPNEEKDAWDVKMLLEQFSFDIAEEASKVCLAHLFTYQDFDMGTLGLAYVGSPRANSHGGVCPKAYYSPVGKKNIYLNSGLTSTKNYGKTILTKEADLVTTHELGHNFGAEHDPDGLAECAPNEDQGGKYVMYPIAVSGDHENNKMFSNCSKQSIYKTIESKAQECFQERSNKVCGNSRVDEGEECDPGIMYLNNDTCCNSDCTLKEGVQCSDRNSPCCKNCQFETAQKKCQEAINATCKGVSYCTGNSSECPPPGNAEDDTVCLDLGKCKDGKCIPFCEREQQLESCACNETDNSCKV
T4 sequence (P78536 475-602): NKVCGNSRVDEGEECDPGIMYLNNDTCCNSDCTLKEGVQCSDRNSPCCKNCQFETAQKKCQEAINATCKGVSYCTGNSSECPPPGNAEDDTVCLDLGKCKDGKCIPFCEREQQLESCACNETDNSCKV
T5 sequence (P78536 223-563): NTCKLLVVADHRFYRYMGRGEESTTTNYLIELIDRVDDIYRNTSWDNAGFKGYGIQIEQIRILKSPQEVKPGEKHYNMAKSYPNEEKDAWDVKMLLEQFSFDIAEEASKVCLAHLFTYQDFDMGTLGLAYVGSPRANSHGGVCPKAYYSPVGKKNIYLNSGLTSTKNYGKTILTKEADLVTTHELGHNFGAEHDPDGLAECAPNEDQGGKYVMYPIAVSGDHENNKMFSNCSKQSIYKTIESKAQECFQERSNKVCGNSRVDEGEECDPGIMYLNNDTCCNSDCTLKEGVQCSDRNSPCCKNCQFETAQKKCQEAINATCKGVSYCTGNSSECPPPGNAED
T7 sequence (P78536 18-474): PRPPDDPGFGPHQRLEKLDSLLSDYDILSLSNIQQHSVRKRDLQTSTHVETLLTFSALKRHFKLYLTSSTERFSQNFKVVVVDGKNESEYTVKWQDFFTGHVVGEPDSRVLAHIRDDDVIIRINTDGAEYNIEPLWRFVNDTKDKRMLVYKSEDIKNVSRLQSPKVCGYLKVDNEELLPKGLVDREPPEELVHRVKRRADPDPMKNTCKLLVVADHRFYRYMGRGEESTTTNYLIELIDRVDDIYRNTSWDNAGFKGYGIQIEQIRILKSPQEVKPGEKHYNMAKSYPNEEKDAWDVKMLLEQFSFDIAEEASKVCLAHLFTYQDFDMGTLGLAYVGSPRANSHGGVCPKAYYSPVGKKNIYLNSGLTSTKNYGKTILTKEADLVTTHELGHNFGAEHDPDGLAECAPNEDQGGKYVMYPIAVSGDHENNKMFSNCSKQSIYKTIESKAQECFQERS

B1: enzymatically deglycosylated 1022C3 (antibody, V domains shown)
VH: QVTLKESGPGILQPSQTLSLTCSFSGFSLDTSGMGVSWIRQPSGKGLEWLAHIYWDDDKRYNPSLKSRLTISKDTSSNQVFLKITSLDTADTATYYCARRSHFGNYYYAMDYWGQGTSVTVTS
VL: DVQMTQTTSSLSASLGDRVTISCRASQDISSYLNWYQQKPDGTFKLLIFYTSRLQSGVPSKYSGSGSGTDYSLTISNLEQEDIAAYFCQQGKTLPLTFGAGTKLELK
notes: also called 1022C3 enzymatically deglycosylated
- EC50 (read off the curve) [1]: ~0.5 nM

B2: murine monoclonal antibody 1022C3 (antibody, V domains shown)
VH: B1 VH with D30N
VL: B1 VL
modifications: N-glycosylated asparagine in CDR-H1
notes: Murine IgG from hybridoma I-4686, captured by anti-mouse antibody in the SPR assays; also called m1022C3; mAb 1022C3
- binding result (rhADAM10): no binding (tested: 1 µg/ml)
- response (RU) [2]: < 10 RU
- response (RU) [3]: < 10 RU
- response (RU) [4]: < 10 RU
- response (RU) [5]: < 10 RU
- response (RU) [6]: < 10 RU
- response (RU) [7]: < 10 RU
- Kd [8]: 1.27 nM
- koff [8]: 0.00036 s⁻¹
- kon [8]: 284000 M⁻¹ s⁻¹
- response (RU) [9]: < 10 RU
- response (RU) [10]: 90 to 140 RU
- response (RU) [11]: < 10 RU
- EC50 (read off the curve) [1]: ~0.5 nM

Reference: US20190071518A1 (PIERRE FABRE MEDICAMENT, published 2019)
